# From US11932845B2, “Microorganisms and methods for production of 4-hydroxybutyrate, 1,4-butanediol and related compounds” (priority 2012, dated 2024)
# B1: 0034: Gene ID 0034, cat2, Porphyromonas gingivalis W83, 4-hydroxybutyrate coenzyme A transferase (protein, listed as Porphyromonas gingivalis)
# chain: MKDVLAEYASRIVSAEEAVKHIKNGERVALSHAAGVPQSCVDALVQQADLFQNVEIYHMLCLGEGKYMAPEMAPHFRHITNFVGGNSRKAVEENRADFIPVFFYEVPSMIRKDILHIDVAIVQLSMPDENGYCSFGVSCDYSKPAAESAHLVIGEINRQMPYVHGDNLIHISKLDYIVMADYPIYSLAKPKIGEVEEAIGRNCAELIEDGATLQLGIGAIPDAALLFLKDKKDLGIHTEMFSDGVVELVRSGVITGKKKTLHPGKMVATFLMGSEDVYHFIDKNPDVELYPVDYVNDPRVIAQNDNMVSINSCIEIDLMGQVVSECIGSKQFSGTGGQVDYVRGAAWSKNGKSIMAIPSTAKNGTASRIVPIIAEGAAVTTLRNEVDYVVTEYGIAQLKGKSLRQRAEALIAIAHPDFREELTKHLRKRFG
# B2: 0026: Gene ID 0026, bdhA, Clostridium acetobutylicum ATCC 824, Butanol dehydrogenase (protein, UniProt Q04944 1-389, looked up)
# NADH-dependent butanol …: MLSFDYSIPTKVFFGKGKIDVIGEEIKKYGSRVLIVYGGGSIKRNGIYDRATAILKENNIAFYELSGVEPNPRITTVKKGIEICRENNVDLVLAIGGGSAIDCSKVIAAGVYYDGDTWDMVKDPSKITKVLPIASILTLSATGSEMDQIAVISNMETNEKLGVGHDDMRPKFSVLDPTYTFTVPKNQTAAGTADIMSHTFESYFSGVEGAYVQDGIAEAILRTCIKYGKIAMEKTDDYEARANLMWASSLAINGLLSLGKDRKWSCHPMEHELSAYYDITHGVGLAILTPNWMEYILNDDTLHKFVSYGINVWGIDKNKDNYEIAREAIKNTREYFNSLGIPSKLREVGIGKDKLELMAKQAVRNSGGTIGSLRPINAEDVLEIFKKSY
# B3: PTB: phosphotransbutyrylase (ptb) from C. acetobutylicum, gene 0020 (protein, UniProt P58255 1-301, looked up)
# Phosphate butyryltransferase: MIKSFNEIIMKVKSKEMKKVAVAVAQDEPVLEAVRDAKKNGIADAILVGDHDEIVSIALKIGMDVNDFEIVNEPNVKKAALKAVELVSTGKADMVMKGLVNTATFLRSVLNKEVGLRTGKTMSHVAVFETEKFDRLLFLTDVAFNTYPELKEKIDIVNNSVKVAHAIGIENPKVAPICAVEVINPKMPSTLDAAMLSKMSDRGQIKGCVVDGPLALDIALSEEAAHHKGVTGEVAGKADIFLMPNIETGNVMYKTLTYTTDSKNGGILVGTSAPVVLTSRADSHETKMNSIALAALVAGNK
# Legend:
# [1] = target: T1, L(+)-lactate dehydrogenase from rabbit muscle (Oryctolagus cuniculus, UniProt P13491); conditions: compared with that on pyruvate; cited from earlier work
# T1 construct: host or cells: rabbit muscle
# [2] = tested on: D(−)-lactate dehydrogenase from L. leichmanii; conditions: compared with that on pyruvate; cited from earlier work
# [3] = tested on: L(+)-lactate dehydrogenase from A. eutrophus; conditions: compared with that on pyruvate; cited from earlier work
# [4] = tested on: branched chain alpha-ketoacid decarboxylase (BCKA); conditions: decarboxylation; cited from earlier work
# [5] = Minohara et al., 2002; read-out: Km for O2; cited from earlier work
# BDO pathway = type: cell-based, E. coli; conditions: host ECKh-432 with aldehyde dehydrogenase; 23G needle
# [6] = tested on: 4-HB to BDO conversion pathway; assay: Production of BDO from 10 mM 4-HB in recombinant E. coli strains; conditions: for BDO: adhE2 in pZE13
# Procedure: For the BDO production experiments, cat2 from Porphyromonas gingivalis W83 (gene 0034) was included on pZA33 for the conversion of 4-HB to 4-HB-CoA, while the candidate dehydrogenase genes were expressed on pZE13. The host strain was MG1655 lacI^Q. Along with the alcohol and aldehyde dehydrogenase candidates, we also tested the ability of CoA-dependent succinic semialdehyde dehydrogenases (sucD) to function in this step, due to the similarity of the substrates. Cells were grown to an OD of about 0.5 in LB medium supplemented with 10 mM 4-HB, induced with 1 mM IPTG, and culture broth samples taken after 24 hours and analyzed for BDO as described below.
# Finally, the construct was tested for participation in the conversion of 4-HB to BDO. Host strains were transformed with the pZA33-0020-0021 construct described and pZE13-0002, and compared to use of cat2 in BDO production using the aerobic procedure used above in FIG. 5.
# Alcohol dehydrogenase = Alcohol dehydrogenase (ADH) assay in the reductive direction, cell extracts; conditions: cell extracts from MG1655 lacI^Q containing pZA33
# Procedure: (§1) Alcohol (ADH) and aldehyde (ALD) dehydrogenase was assayed in the reductive direction using a procedure adapted from several literature sources (Durre et al., FEMS Microbiol. Rev. 17:251-262 (1995); Palosaari and Rogers, J. Bacteriol. 170:2971-2976 (1988) and Welch et al., Arch. Biochem. Biophys. 273:309-318 (1989). The oxidation of NADH is followed by reading absorbance at 340 nm every four seconds for a total of 240 seconds at room temperature. The reductive assays were performed in 100 mM MOPS (adjusted to pH 7.5 with KOH), 0.4 mM NADH, and from 1 to 50 μl of cell extract. The reaction is started by adding the following reagents: 100 μl of 100 mM acetaldehyde or butyraldehyde for ADH, or 100 μl of 1 mM acetyl-CoA or butyryl-CoA for ALD. The Spectrophotometer is quickly blanked and then the kinetic read is started. The resulting slope of the reduction in absorbance at 340 nm per minute, along with the molar extinction coefficient of NAD(P)H at 340 nM (6000) and the protein concentration of the extract, can be used to determine the specific activity.
# (§2) Gene candidates for the 4-HB to BDO conversion pathway were next tested for activity when expressed in the E. coli host MG1655 lacI^Q. Recombinant strains containing each gene candidate expressed on pZA33 were grown in the presence of 0.25 mM IPTG for four hours at 37° C. to fully induce expression of the enzyme. Four hours after induction, cells were harvested and assayed for ADH and ALD activity as described above.
# Aldehyde dehydrogenase = Aldehyde dehydrogenase (ALD) assay in the reductive direction, cell extracts; conditions: cell extracts from MG1655 lacI^Q containing pZA33
# Procedure: as §1, §2
# [7] = target: T2, phosphotransbutyrylase (ptb) (Clostridium acetobutylicum, UniProt P58255); assay: PTB enzyme activity, butyryl-CoA to butyryl-phosphate, DTNB; type: biochemical, C. acetobutylicum; conditions: extracts of cells with pZA33-0020-0021
# T2 sequence (P58255 whole entry, looked up): B3 Phosphate butyryltransferase
# Procedure: The enzyme activity of PTB is measured in the direction of butyryl-CoA to butyryl-phosphate as described in Cary et al. J. Bacteriol. 170:4613-4618 (1988). It provides inorganic phosphate for the conversion, and follows the increase in free CoA with the reagent 5,5′-dithiobis-(2-nitrobenzoic acid), or DTNB. DTNB rapidly reacts with thiol groups such as free CoA to release the yellow-colored 2-nitro-5-mercaptobenzoic acid (TNB), which absorbs at 412 nm with a molar extinction coefficient of 14,140 M cm^−1. The assay buffer contained 150 mM potassium phosphate at pH 7.4, 0.1 mM DTNB, and 0.2 mM butyryl-CoA, and the reaction was started by addition of 2 to 50 μL cell extract. The enzyme activity of BK is measured in the direction of butyrate to butyryl-phosphate formation at the expense of ATP. The procedure is similar to the assay for acetate kinase previously described Rose et al., J. Biol. Chem. 211:737-756 (1954). […] This assay links conversion of ATP to ADP by acetate kinase to the linked conversion of ADP and phosphoenolpyruvate (PEP) to ATP and pyruvate by pyruvate kinase, followed by the conversion of pyruvate and NADH to lactate and NAD+ by lactate dehydrogenase. […] The reaction was started by adding 2 to 50 μL cell extract, and the reaction was monitored based on the decrease in absorbance at 340 nm indicating NADH oxidation.
molecule,measurement,setting,value
O=C(O)CCC(=O)C(=O)O [2-Oxoglutarate],Activity (%) of L(+)-lactate dehydrogenase from rabbit muscle,[1],0.0%
same,Activity (%) of D(−)-lactate dehydrogenase from L. leichmanii,[2],0.0%
same,Activity (%) of L(+)-lactate dehydrogenase from A. eutrophus,[3],79.6%
same,activity relative to activity on other branched-chain substrates,[4],5%
"cytochrome bd oxidase: E. coli cytochrome d terminal oxidase, encoded by the cyd operon",Km,[5],0.01 µM
B1,BDO and GBL levels,BDO pathway,significantly higher than 2021n
same,BDO/OD,[6]; Host Strain MG1655 lacI^Q,0.042
same,BDO,"[6]; Host Strain MG1655 lacI^Q, aerobic procedure",0.827 µM
same,BDO/OD,[6]; Host Strain MG1655 ΔadhE lacI^Q,0.166
same,BDO,"[6]; Host Strain MG1655 ΔadhE lacI^Q, aerobic procedure",2.084 µM
same,BDO produced,"[6]; with pZE13-0002, aerobic procedure",2 mM
B2,"Alcohol dehydrogenase, Substrate Acetaldehyde",Alcohol dehydrogenase,0.0008 μmol min^−1 mg cell protein^−1
same,"Alcohol dehydrogenase, Substrate Butyraldehyde",Alcohol dehydrogenase,0.0024 μmol min^−1 mg cell protein^−1
same,"Aldehyde dehydrogenase, Substrate Acetyl-CoA",Aldehyde dehydrogenase,0.0005 μmol min^−1 mg cell protein^−1
same,"Aldehyde dehydrogenase, Substrate Butyryl-CoA",Aldehyde dehydrogenase,0 μmol min^−1 mg cell protein^−1
B3,specific activity of PTB,[7],approximately 5 U/mg
